“Also recorded” adds a separate entry of the source.
Key:
Foxp3-DTR mice = test: Foxp3+ Treg depletion by diphtheria toxin in DEREG (Foxp3-DTR) mice; type: in vivo, mouse
CP epithelial cells = test: Primary culture of choroid plexus cells treated with cytokines, mRNA by real-time qPCR; type: cell-based, mouse; conditions: for gene expression levels of trafficking molecules (ICAM-1, VCAM-1, CCL5, CXCL9, CXCL10, MHC-II): cultured CP cells from WT mice; for gene expression levels of trafficking molecules (ICAM-1, VCAM-1, CCL5, CXCL9, CXCL10, MHC-II) / expression of IFN-γ-receptor (IFN-γR) mRNA: IL-6 10 ng/ml; for gene expression levels of trafficking molecules (ICAM-1, VCAM-1, CCL5, CXCL9, CXCL10, MHC-II) / expression of the chemokine CCL20: IL-17 100 ng/ml; for expression of trafficking-related genes, escalating dosing of the cytokines: escalating dosing (data not shown); for ccl11 mRNA levels (CCL11 expression): cultured CP epithelial cells from young (3 months) mice, 24 hours after addition; for expression of IFN-γ-receptor (IFN-γR) mRNA / expression of the chemokine CCL20: CP epithelial cells; for expression of IFN-γ-receptor (IFN-γR) mRNA: TNF-α 100 ng/ml, IL-1β 100 ng/ml
Experimental: Mice were perfused from the left ventricle of the heart with PBS, and their CPs were removed under a dissecting microscope (Stemi DV4; Zeiss) in PBS into tubes containing 0.25% trypsin, and kept on ice. The tubes were shaken for 20 minutes at 37° C. and the tissue was dissociated by pipetting. The cell suspension was washed in culture medium for epithelial cells (DMEM/HAM's F12 (Invitrogen Corp)) supplemented with 10% FCS (Sigma-Aldrich), 1 mM 1-glutamine, 1 mM sodium pyruvate, 100 U/ml penicillin, […] streptomycin, 5 μg/ml Insulin, 20 μM Ara-C, 5 ng/ml sodium selenite, 10 ng/ml EGF, and cultured (˜250,000 cells/well) at 37° C., 5% CO2 in 24-well plates (Corning Incorporated) coated with poly-L-lysine (PLL; Sigma-Aldrich). After 24 hours, the medium was changed, and the cells were either left untreated, or treated with the indicated cytokines (all purchased from PeproTech): IFN-γ, IL-4, IL-10, IL-17A, GM-CSF, IL-6, IL-1β or TNF-α or their combinations for 24 h. Cell viability was quantified by Trypan blue staining after detachment of the cells with 0.25% trypsin for 10 minutes at 37° C. Neutralizing antibodies to TNF-R1 or TNF-R2 ([…], BioLegend) were added 1 h prior to the addition of TNF-α (100 ng/ml). RNA was isolated using the ZR RNA microprep kit (Zymo Research) according to the manufacturer's protocol.
Total RNA of the hippocampus was extracted with TRI reagent (MRC, Cincinnati, Ohio) and was purified from the lysates and spinal cord using the RNeasy kit (Qiagen, Hilden, Germany). Total RNA of the choroid plexus was extracted using the RNA MicroPrep kit (Zymo Research). mRNA (1 μg) was converted to cDNA using High Capacity cDNA Reverse Transcription Kit (Applied Biosystems). The expression of specific mRNAs was assayed using fluorescence based real-time quantitative PCR (qPCR). qPCR reactions were performed using Power SYBR Green PCR Master Mix (Applied Biosystems). Quantification reactions were performed in triplicates for each sample using the standard curve method. Glyceraldehyde 3-phosphate dehydrogenase (GAPDH), Peptidylprolyl isomerase A (PPIA), and hypoxanthine guanine phosphoribosyltransferase (HPRT) were chosen as reference genes according to their stability in the target tissue. The amplification cycles were 95° C. for 5 sec, 60° C. for 20 sec, and 72° C. for 15 sec. At the end of the assay, a melting curve was constructed to evaluate the specificity of the reaction. For some genes, the cDNA was pre-amplified in 14 PCR cycles with non-random PCR primers, thus increasing the sensitivity of the subsequent real-time PCR analysis (PreAmp Master Mix Kit, Applied Biosystems). For these genes, expression was determined using TaqMan Real-Time PCR, according to manufacturer's instructions (Applied Biosystems). All quantitative real-time PCR reactions were performed and analyzed using the 7500 Real-Time PCR System (Applied Biosystems). The following TaqMan probes were used: Mm02342430_g1 (ppia), Mm00446968_m1 (hprt), Mm00445260_m1 (il-4), Mm01168134_m1 (ifn-γ), Mm00441238_m1 (ccl11), Mm00475988_m1 (arg-1). In addition, the following primers were used: […]

cultured CP cells = test: Immunocytochemistry of cultured CP cells treated with cytokines; type: cell-based, mouse
Experimental: For whole mount staining of the choroid plexus, isolated tissues were fixed with 2.5% paraformaldehyde (PFA) for several hours, and subsequently transferred to PBS containing 0.05% sodium azide. Prior to staining, the dissected tissues were washed and blocked (20% horse serum, 0.3% Triton X-100, and PBS) for 1 h at room temperature with shaking. Whole mount staining with primary (in PBS containing 2% horse serum and 0.3% Triton X-100) and secondary antibodies (in PBS), was performed for 1h at room temperature, with shaking. Each step was followed by three washes in PBS. The tissues were mounted onto slides, using Immu-mount (9990402, from Thermo), and sealed with cover-slips. For staining of sectioned brains, two different tissue preparation protocols (paraffin embedded and microtomed frozen sections) were applied, as previously described (Ziv Y et al (2006b)). For immunocytochemistry, CP cells were isolated as described above and were grown on PLL coated cover slips for 7 days, replacing the medium every 3 days. Cytokines were added for the last 3 days of culture. Following 7 days of culture, the wells were washed with PBS and the cells were fixed either with 2.5% paraformaldehyde for 30 min or methanol-acetone (1:1) for 10 min at −20° C., following by 2 washing steps with PBS. For CCL11 staining, cells were treated with Brefeldin-A 2 hours prior to fixation in order to arrest protein secretion. The cover slips of the cultured CP cells were incubated with the indicated antibodies and mounted with Glycerol Vinyl Alcohol (GVA) mounting solution (Invitrogen). The following primary antibodies were used: rat anti-CD3 (Abcam); rat anti-ICAM-1 (1:100; Abcam), chicken anti-vimentin (1:500, Millipore), rabbit anti-Iba1 (1:300; Wako), goat anti-IL-10 (1:20; R&D), mouse anti-MHC-II (Abcam); mouse anti-Arginase-1 (BD Biosciences); mouse anti-Cytokeratin (Covance); rat anti-CCL11 (R&D Systems); rabbit anti-ZO-1 (Invitrogen); and rabbit anti-Claudin-1 (Invitrogen). Secondary antibodies included: Cy2/Cy3-conjugated donkey anti-rat, mouse or rabbit antibody and Cy3 conjugated donkey anti-mouse, goat, rat, chicken or rabbit (1:200; all from Jackson Immuno Research). The slides were exposed to Hoechst stain (1:2000; Invitrogen) for 1 min. Two negative controls were routinely used in immunostaining procedures, staining with isotype control antibody followed by secondary antibody, and staining with secondary antibody alone. For morphological quantification, average cross-sectional area of epithelial cells was measured following Nissl staining. Cell borders (20-25 cells per picture) were marked and the area was quantified using Image-Pro Plus software in a blinded fashion.

[1] = 24 hours, IFN-γ 100 ng/ml, IL-4 10 ng/ml

For diphtheria toxin [DTX], the “Foxp3+ T cells in the spleen, the CP and the CSF” value (Foxp3-DTR mice; DTX 8 ng/g i.p. per day for 4 days, DTR+ mice) was “depleted” and the “mRNA of ICAM-1, CXCL9, CXCL10, CXCL11, MCP-1, MCSF, BDNF and IGF-1 in the CP” value (Foxp3-DTR mice; following Foxp3+ T cells depletion by DTX) was “significantly upregulated”.

“IL-4: Th2-derived cytokine, purchased from PeproTech, added to cultured CP cells” was tested, and the “gene expression levels of trafficking molecules (ICAM-1, VCAM-1, CCL5, CXCL9, CXCL10, MHC-II)” value (“gene expression levels” below) (CP epithelial cells; [1]) was “no effect on trafficking molecules”, the “expression of trafficking-related genes, escalating dosing of the cytokines” value (“expression of trafficking-related genes” below) (CP epithelial cells; cultured CP cells) was “None of the tested cytokines, other than IFN-γ, had any effect” and the “ccl11 mRNA levels (CCL11 expression)” value (CP epithelial cells; IL-4 10 ng/ml, IFN-γ 100 ng/ml) was “expressed high levels of CCL11”. The “arginase-1 (Arg1) expression” value (CP epithelial cells; cultured CP epithelial cells, IL-4 10 ng/ml, 24 h) was “upregulated arginase-1; also recorded: dramatic effect on the upregulation of arginase-1”, the “epithelial tight junctions (ZO-1 staining)” value (cultured CP cells; CP epithelial cell cultures in response to IL-4 (data not shown)) was “dysregulated” and the CCL11 immunoreactivity (cultured CP cells; CP epithelium, IL-4, following Brefeldin-A treatment (data not shown)) was “produced CCL11”. The Arg1 immunostaining (cultured CP cells; IL-4 (10 ng/ml) treated CP epithelial cells) was “higher relative to untreated cells”.

B1: IL-6: pro-inflammatory cytokine, purchased from PeproTech (protein, UniProt P08505 25-211, looked up)
Interleukin-6: FPTSQVRRGDFTEDTTPNRPVYTTSQVGGLITHVLWEIVEMRKELCNGNSDCMNNDDALAENNLKLPEIQRNDGCYQTGYNQEICLLKISSGLLEYHSYLEYMKNNLKDNKKDKARVLQRDTETLIHIFNQEVKDLHKIVLPTPISNALLTDKLESQKEWLRTKTIQFILKSLEEFLKVTLRSTRQT
In the case of B1, the “expression of IFN-γ-receptor (IFN-γR) mRNA” value (CP epithelial cells; 24 h) is reported as “not”, the “gene expression levels” value (CP epithelial cells; [1]) is reported as “neither IL-17, nor its induced cytokine IL-6, had any effect” and the “expression of trafficking-related genes” value (CP epithelial cells; cultured CP cells) is reported as “None of the tested cytokines, other than IFN-γ, had any effect”.

B2: IL-1β: pro-inflammatory cytokine, purchased from PeproTech (protein, UniProt P10749 118-269, looked up)
Interleukin-1 beta: VPIRQLHYRLRDEQQKSLVLSDPYELKALHLNGQNINQQVIFSMSFVQGEPSNDKIPVALGLKGKNLYLSCVMKDGTPTLQLESVDPKQYPKKKMEKRFVFNKIEVKSKVEFESAEFPNWYISTSQAEHKPVFLGNNSGQDIIDFTMESVSS
With B2 the “expression of IFN-γ-receptor (IFN-γR) mRNA” value (CP epithelial cells; 24 h) was “elevated the expression of IFN-γ-receptor”.

B3: IFN-γ: Th1-derived cytokine, purchased from PeproTech, added to cultured CP cells (protein, UniProt P01580 23-155, looked up)
Interferon gamma: HGTVIESLESLNNYFNSSGIDVEEKSLFLDIWRNWQKDGDMKILQSQIISFYLRLFEVLKDNQAISNNISVIESHLITTFFSNSKAKKDAFMSIAKFEVNNPQVQRQAFNELIRVVHQLLPESSLRKRKRSRC
B3 was tested, and the “expression of trafficking molecules (ICAM-1, VCAM-1, CCL5, CXCL10) mRNA” value (CP epithelial cells; CP epithelial cells from 70 day old WT and mSOD1 mice, IFN-γ 100 ng/ml, 24h) was “elevated the expression of trafficking molecules by both WT and mSOD1 CP cultures to a similar degree”, the “expression of the chemokine CCL20” value (CP epithelial cells; IFN-γ 100 ng/ml, 24 h) was “not” and the “expression of trafficking molecules, IFN-γ combined with TNF-α” value (CP epithelial cells; IFN-γ 100 ng/ml combined with TNF-α 100 ng/ml, 24 hours, most of the tested genes) was “strong synergistic effect”. The “effect of IL-4 on CCL11 production” value (CP epithelial cells; IFN-γ (100 ng/ml) added together with IL-4, young CP epithelial cells, 24 hours) was “reversed the effect of IL-4 on CCL11 production”, the “gene expression levels” value (CP epithelial cells; [1]) was “induced the upregulation of a wide array of trafficking molecules” and the “expression of TNF-R1 mRNA” value (CP epithelial cells; cultured CP cells, IFN-γ 100 ng/ml, 24 h) was “elevated the expression of TNF-R1”. The “expression of chemokines CCL2, Fractalkine (CX3CL1) and M-CSF” value (CP epithelial cells; cultured CP cells, IFN-γ 100 ng/ml, 24 hours) was “upregulated”, the “expression of trafficking-related genes” value (CP epithelial cells; cultured CP cells) was “activated the CP in a dose dependent manner” and the “basal CCL11 expression” value (CP epithelial cells; cultured CP epithelial cells from old (22 months) mice, IFN-γ 100 ng/ml, 24 hours) was “decreased basal CCL11 expression”. The “ccl11 mRNA levels (CCL11 expression)” value (CP epithelial cells; IL-4 10 ng/ml, IFN-γ 100 ng/ml) was “had no effect on CCL11 expression”, the “ICAM-1 and VCAM-1 immunostaining on CP epithelial cells” value (cultured CP cells; 3 days after addition of IFN-γ (100 ng/ml)) was “elevated” and the “IL-4 induced CCL11 immunoreactivity” value (cultured CP cells; co-incubation of IFN-γ with IL-4, following Brefeldin-A treatment (data not shown)) was “reversed this induction”.

B4: IL-10: Treg-derived cytokine, purchased from PeproTech (protein, UniProt P18893 19-178, looked up)
Interleukin-10: SRGQYSREDNNCTHFPVGQSHMLLELRTAFSQVKTFFQTKDQLDNILLTDSLMQDFKGYLGCQALSEMIQFYLVEVMPQAEKHGPEIKEHLNSLGEKLKTLRMRLRRCHRFLPCENKSKAVEQVKSDFNKLQDQGVYKAMNEFDIFINCIEAYMMIKMKS
For B4, the “expression of trafficking-related genes” value (CP epithelial cells; cultured CP cells) was “None of the tested cytokines, other than IFN-γ, had any effect”.

B5: IL-17: Th17-derived cytokine, purchased from PeproTech (protein, UniProt Q62386 26-158, looked up)
Interleukin-17A: AAIIPQSSACPNTEAKDFLQNVKVNLKVFNSLGAKVSSRRPSDYLNRSTSPWTLHRNEDPDRYPSVIWEAQCRHQRCVNAEGKLDHHMNSVLIQQEILVLKREPESCPFTFRVEKMLVGVGCTCVASIVRQAA
B5 was tested, and the “expression of the chemokine CCL20” value (CP epithelial cells; IFN-γ 100 ng/ml, 24 h) was “elevated the expression of the chemokine CCL20” and the “gene expression levels” value (CP epithelial cells; [1]) was “failed to activate the choroid plexus for trafficking”.

B6: GM-CSF: cytokine purchased from PeproTech (protein, UniProt P01587 18-141, looked up)
Granulocyte-macrophage …: APTRSPITVTRPWKHVEAIKEALNLLDDMPVTLNEEVEVVSNEFSFKKLTCVQTRLKIFEQGLRGNFTKLKGALNMTASYYQTYCPPTPETDCETQVTTYADFIDSLKTFLTDIPFECKKPGQK
With B6 the “expression of trafficking-related genes” value (CP epithelial cells; cultured CP cells) was “None of the tested cytokines, other than IFN-γ, had any effect”.

Source: patent US20190022198A1, “Individualized Immunomodulation Therapy for Neurodegenerative Disorders, CNS Injury and Age-Related Dementia” (Yeda Research and Development Co. Ltd., priority 2012, published 2019)
